{"source": "paper PMC3022782", "origin": "cited, not measured here", "biological_target": "β sliding clamp rim (Escherichia coli) (UniProt P0A988)", "sequence (P0A988 whole entry)": "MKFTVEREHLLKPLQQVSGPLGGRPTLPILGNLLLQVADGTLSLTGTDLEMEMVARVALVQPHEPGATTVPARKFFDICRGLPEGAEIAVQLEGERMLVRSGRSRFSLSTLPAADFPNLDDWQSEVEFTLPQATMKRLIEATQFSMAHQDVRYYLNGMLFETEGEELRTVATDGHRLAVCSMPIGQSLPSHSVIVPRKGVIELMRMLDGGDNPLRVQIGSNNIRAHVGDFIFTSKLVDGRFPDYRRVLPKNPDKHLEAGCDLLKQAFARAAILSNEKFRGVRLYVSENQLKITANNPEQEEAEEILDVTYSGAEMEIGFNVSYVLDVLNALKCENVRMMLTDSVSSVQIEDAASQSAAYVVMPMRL", "data": [{"substance": "Pol IV (from UniProt Q47155)", "values": [{"measurement": "Kd", "result": 1000, "unit": "nM"}]}]}
